Data set [1] addresses T1, second DNA polymerase-constituting protein (translation product of ORF4).
T1 chain: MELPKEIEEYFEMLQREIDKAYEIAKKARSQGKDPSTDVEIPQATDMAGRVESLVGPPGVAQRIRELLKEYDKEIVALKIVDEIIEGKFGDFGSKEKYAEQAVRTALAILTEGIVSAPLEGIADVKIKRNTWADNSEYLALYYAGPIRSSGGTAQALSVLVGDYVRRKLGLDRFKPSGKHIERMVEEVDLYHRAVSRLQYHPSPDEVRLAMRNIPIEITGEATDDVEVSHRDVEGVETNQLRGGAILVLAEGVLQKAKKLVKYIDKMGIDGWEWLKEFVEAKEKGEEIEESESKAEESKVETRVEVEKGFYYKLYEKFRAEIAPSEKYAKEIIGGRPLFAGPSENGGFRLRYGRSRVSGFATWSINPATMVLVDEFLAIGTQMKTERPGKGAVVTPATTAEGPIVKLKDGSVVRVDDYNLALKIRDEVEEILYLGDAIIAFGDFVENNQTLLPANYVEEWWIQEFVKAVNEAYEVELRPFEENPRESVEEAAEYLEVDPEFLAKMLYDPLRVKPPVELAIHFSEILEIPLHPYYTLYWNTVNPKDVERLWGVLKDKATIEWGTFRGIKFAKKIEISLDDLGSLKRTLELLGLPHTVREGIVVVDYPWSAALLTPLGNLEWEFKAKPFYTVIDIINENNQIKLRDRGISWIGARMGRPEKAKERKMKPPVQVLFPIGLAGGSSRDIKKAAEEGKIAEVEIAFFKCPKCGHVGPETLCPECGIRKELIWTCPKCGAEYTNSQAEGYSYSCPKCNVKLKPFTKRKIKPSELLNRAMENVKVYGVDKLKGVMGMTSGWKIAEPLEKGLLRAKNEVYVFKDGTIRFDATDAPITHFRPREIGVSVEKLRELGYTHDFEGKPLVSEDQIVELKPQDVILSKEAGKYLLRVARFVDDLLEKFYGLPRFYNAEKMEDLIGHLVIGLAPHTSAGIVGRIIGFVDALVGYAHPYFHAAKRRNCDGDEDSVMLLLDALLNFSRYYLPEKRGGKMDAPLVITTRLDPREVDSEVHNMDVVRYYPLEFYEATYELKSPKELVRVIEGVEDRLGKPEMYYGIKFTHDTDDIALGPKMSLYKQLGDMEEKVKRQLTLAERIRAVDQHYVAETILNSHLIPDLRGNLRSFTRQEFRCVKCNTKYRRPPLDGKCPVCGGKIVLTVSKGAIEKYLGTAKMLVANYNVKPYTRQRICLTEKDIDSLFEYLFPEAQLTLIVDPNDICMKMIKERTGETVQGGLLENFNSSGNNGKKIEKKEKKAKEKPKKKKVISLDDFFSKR

In data set [2] the target is T2, second DNA polymerase-constituting protein (translation product of ORF4) (Pyrococcus furiosus, UniProt P81409 1-1263).
T2 construct: Subunit of the two-protein DNA polymerase from Pyrococcus furiosus DSM3638; Expressed in E. coli, either together with ORF3 from pFU1001 or alone from pFU-ORF4; About 140,000 Da on SDS-PAGE; also called ORF4 translation product; ORF4-derived translation product
T2 sequence: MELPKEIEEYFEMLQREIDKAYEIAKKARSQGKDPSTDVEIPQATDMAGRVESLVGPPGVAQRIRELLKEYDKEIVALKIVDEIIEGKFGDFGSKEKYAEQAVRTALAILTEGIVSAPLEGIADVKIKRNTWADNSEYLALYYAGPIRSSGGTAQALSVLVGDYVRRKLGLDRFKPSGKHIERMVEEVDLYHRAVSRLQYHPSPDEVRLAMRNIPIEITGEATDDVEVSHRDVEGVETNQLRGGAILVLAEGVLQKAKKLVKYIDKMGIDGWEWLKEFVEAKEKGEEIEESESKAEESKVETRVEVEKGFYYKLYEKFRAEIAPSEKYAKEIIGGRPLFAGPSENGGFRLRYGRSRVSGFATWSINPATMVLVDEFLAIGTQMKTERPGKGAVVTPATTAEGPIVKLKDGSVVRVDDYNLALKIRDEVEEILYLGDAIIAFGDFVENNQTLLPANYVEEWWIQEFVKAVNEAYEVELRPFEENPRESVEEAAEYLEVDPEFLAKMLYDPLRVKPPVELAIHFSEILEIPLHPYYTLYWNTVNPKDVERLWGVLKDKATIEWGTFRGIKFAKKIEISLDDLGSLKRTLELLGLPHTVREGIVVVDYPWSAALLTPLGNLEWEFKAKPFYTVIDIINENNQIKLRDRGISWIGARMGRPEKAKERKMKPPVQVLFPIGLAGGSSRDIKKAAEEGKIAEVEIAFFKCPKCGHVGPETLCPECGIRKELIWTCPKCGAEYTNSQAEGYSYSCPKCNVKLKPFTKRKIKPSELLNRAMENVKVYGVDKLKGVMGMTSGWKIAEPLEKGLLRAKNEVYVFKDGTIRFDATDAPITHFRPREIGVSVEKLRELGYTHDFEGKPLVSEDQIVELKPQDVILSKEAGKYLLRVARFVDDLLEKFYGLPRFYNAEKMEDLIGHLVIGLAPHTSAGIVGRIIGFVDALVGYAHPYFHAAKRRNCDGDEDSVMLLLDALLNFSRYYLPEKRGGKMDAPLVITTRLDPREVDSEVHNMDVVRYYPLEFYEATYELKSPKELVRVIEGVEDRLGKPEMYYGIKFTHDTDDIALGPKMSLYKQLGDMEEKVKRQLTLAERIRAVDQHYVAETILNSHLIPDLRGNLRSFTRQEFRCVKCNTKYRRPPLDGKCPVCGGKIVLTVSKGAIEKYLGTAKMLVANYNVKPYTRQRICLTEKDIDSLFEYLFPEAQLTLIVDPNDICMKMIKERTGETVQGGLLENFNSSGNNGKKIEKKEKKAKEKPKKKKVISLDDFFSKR
Put plainly: gel filtration (Superose 6) of the co-expressed, purified polymerase; activity peaks at about 385 kDa and about 220 kDa. Here is the method: Ten milliliters of an enzyme solution obtained by collecting as an active fraction was desalted and concentrated by ultrafiltration, and dissolved in buffer A+150 mM NaCl to yield 3.5 ml of an enzyme solution. The resulting enzyme solution was then applied to a Hi Trap Heparin column (manufactured by Pharmacia), previously equilibrated with the same buffer. A chromatogram was developed on a linear concentration gradient from 150 to 650 mM NaCl using an FPLC system, to yield an active fraction eluted at 400 mM NaCl. Five milliliters of this fraction was concentrated to 120 µl of a solution including 50 mM potassium phosphate, pH 6.5, 2 mM 2-mercaptoethanol, and 75 mM NaCl by repeating desalting and concentration using ultrafiltration. The resulting concentrated solution was then applied to a gel filtration column of Superose 6 (manufactured by Pharmacia), previously equilibrated with the same buffer, and eluted with the same buffer. As a result, a fraction having a DNA polymerase activity was eluted at positions corresponding to retention times of 34.7 minutes and 38.3 minutes. […] These molecular weights corresponded to a complex formed by the translation product of ORF3 and the translation product of ORF4 in a molar ratio of 1:2 and another complex formed by the above translation products in a molar ratio of 1:1, respectively. […]

B1: first DNA polymerase-constituting protein (translation product of ORF3) (enzyme)
chain: MDEFVKSLLKANYLITPSAYYLLREYYEKGEFSIVELVKFARSRESYIITDALATEFLKVKGLEPILPVETKGGFVSTGESQKEQSYEESFGTKEEISQEIKEGESFISTGSEPLEEELNSIGIEEIGANEELVSNGNDNGGEAIVFDKYGYPMVYAPEEIEVEEKEYSKYEDLTIPMNPDFNYVEIKEDYDVVFDVRNVKLKPPKVKNGNGKEGEIIVEAYASLFRSRLKKLRKILRENPELDNVVDIGKLKYVKEDETVTIIGLVNSKREVNKGLIFEIEDLTGKVKVFLPKDSEDYREAFKVLPDAVVAFKGVYSKRGILYANKFYLPDVPLYRRQKPPLEEKVYAILISDIHVGSKEFCENAFIKFLEWLNGNVETKEEEEIVSRVKYLIIAGDVVDGVGVYPGQYADLTIPDIFDQYEALANLLSHVPKHITMFIAPGNHDAARQAIPQPEFYKEYAKPIYKLKNAVIISNPAVIRLHGRDFLIAHGRGIEDVVGSVPGLTHHKPGLPMVELLKMRHVAPMFGGKVPIAPDPEDLLVIEEVPDVVHMGHVHVYDAVVYRGVQLVNSATWQAQTEFQKMVNIVPTPAKVPVVDIDTAKVVKVLDFSGWC
notes: Subunit of the two-protein DNA polymerase from Pyrococcus furiosus DSM3638; Expressed in E. coli, either together with ORF4 from pFU1001 or alone from pFU-ORF3; About 90,000 Da on SDS-PAGE; also called ORF3 translation product; ORF3-derived translation product
As for B1, the “thermostable DNA polymerase activity” value in data set [1] is given as “although neither of the ORF translation products thus purified exhibited the DNA polymerase activity when assayed alone, thermostable DNA polymerase activity was exhibited when they were mixed together”. Moreover, in data set [2], the binding result is on record as “binds”.

(Values after patent US6395526B1, “DNA polymerase” (Takara Shuzo Co., Ltd., priority 1995, dated 2002).)
